Assay results: patent US20230158141A1 (YAFEI SHANGHAI BIOLOG MEDICINE SCIENCE AND TECHNOLOGY, published 2023)
Where a chain is given by its changes, count along the chain named.

T1: IL-10R1-Fc (UniProt Q13651 22-235, limits assumed)
T1 sequence (looked up): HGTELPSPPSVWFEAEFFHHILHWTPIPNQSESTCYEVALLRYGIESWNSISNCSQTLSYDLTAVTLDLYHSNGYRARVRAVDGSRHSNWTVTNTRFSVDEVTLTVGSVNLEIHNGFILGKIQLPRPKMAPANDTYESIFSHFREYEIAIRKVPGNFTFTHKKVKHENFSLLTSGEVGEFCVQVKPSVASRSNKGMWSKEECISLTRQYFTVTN

T2: IL-10R2-Fc/His (UniProt Q08334 20-220, limits assumed)
T2 sequence (looked up): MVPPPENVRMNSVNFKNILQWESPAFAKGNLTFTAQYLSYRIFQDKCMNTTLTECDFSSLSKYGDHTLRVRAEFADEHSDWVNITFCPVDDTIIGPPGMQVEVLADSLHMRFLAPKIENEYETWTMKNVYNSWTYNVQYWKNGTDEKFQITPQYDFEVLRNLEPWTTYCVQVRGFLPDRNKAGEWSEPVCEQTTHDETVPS

B1: IL-10 Ser141Cys-R4-7 (ligand, human, UniProt P22301 19-178, looked up)
chain: SPGQGTQSENSCTHFPGNLPNMLRDLRDAFSRVKTFFQMKDQLDNLLLKESLLEDFKGYLGCQALSEMIQFYLEEVMPQAENQDPDIKAHVNSLGENLKTLRLRLRRCHRFLPCENKSKAVEQVKNAFNKLQEKGIYKAMCEFDIFINYIEAYMTMKIRN
modifications: R4-7 on Cys 141
notes: mature
B2: IL-10 Thr6Cys-S48 (ligand, human, UniProt P22301 19-178, looked up)
chain: B1 chain with T6C, C141S
modifications: S48 on Cys 6
notes: mature
B3: IL-10 Val91Cys-R4-5 (ligand, human, UniProt P22301 19-178, looked up)
chain: B1 chain with V91C, C141S
modifications: R4-5 on Cys 91
notes: mature
B4: IL-10 Val91Cys-S48 (ligand, human, UniProt P22301 19-178, looked up)
chain: B1 chain with V91C, C141S
modifications: S48 on Cys 91
notes: mature
B5: IL-10 Thr155Cys-S48 (ligand, human, UniProt P22301 19-178, looked up)
chain: B1 chain with C141S, T155C
modifications: S48 on Cys 155
notes: mature
B6: IL-10 Tyr149Cys-R4-4 (ligand, human, UniProt P22301 19-178, looked up)
chain: B1 chain with C141S, Y149C
modifications: R4-4 on Cys 149
notes: mature
B7: IL-10 Tyr149Cys-S48 (ligand, human, UniProt P22301 19-178, looked up)
chain: B1 chain with C141S, Y149C
modifications: S48 on Cys 149
notes: mature
B8: IL-10 Thr13Cys-S48 (ligand, human, UniProt P22301 19-178, looked up)
chain: B1 chain with T13C, C141S
modifications: S48 on Cys 13
notes: mature
B9: IL-10 Thr35Cys-R4-6 (ligand, human, UniProt P22301 19-178, looked up)
chain: B1 chain with T35C, C141S
modifications: R4-6 on Cys 35
notes: mature
B10: IL-10 Thr13Cys-R4-6 (ligand, human, UniProt P22301 19-178, looked up)
chain: B1 chain with T13C, C141S
modifications: R4-6 on Cys 13
notes: mature
B11: IL-10 Tyr137Cys-R4-4 (ligand, human, UniProt P22301 19-178, looked up)
chain: B1 chain with Y137C, C141S
modifications: R4-4 on Cys 137
notes: mature
B12: IL-10 Tyr137Cys-S48 (ligand, human, UniProt P22301 19-178, looked up)
chain: B1 chain with Y137C, C141S
modifications: S48 on Cys 137
notes: mature
B13: IL-10 Ser141Cys-S48 (ligand, human, UniProt P22301 19-178, looked up)
chain: B1 chain
modifications: S48 on Cys 141
notes: mature
B14: IL-10 Tyr72Cys-S48 (ligand, human, UniProt P22301 19-178, looked up)
chain: B1 chain with Y72C, C141S
modifications: S48 on Cys 72
notes: mature
B15: IL-10 Tyr72Cys-R4-4 (ligand, human, UniProt P22301 19-178, looked up)
chain: B1 chain with Y72C, C141S
modifications: R4-4 on Cys 72
notes: mature
B16: IL-10 Thr155Cys-R4-7 (ligand, human, UniProt P22301 19-178, looked up)
chain: B1 chain with C141S, T155C
modifications: R4-7 on Cys 155
notes: mature
B17: IL-10 Phe15Cys-R4-8 (ligand, human, UniProt P22301 19-178, looked up)
chain: B1 chain with F15C, C141S
modifications: R4-8 on Cys 15
notes: mature
B18: IL-10 Glu122Cys-R4-12 (ligand, human, UniProt P22301 19-178, looked up)
chain: B1 chain with E122C, C141S
modifications: R4-12 on Cys 122
notes: mature
B19: IL-10 Leu101Cys-R4-6 (ligand, human, UniProt P22301 19-178, looked up)
chain: B1 chain with L101C, C141S
modifications: R4-6 on Cys 101
notes: mature
B20: IL-10 Leu103Cys-R4-6 (ligand, human, UniProt P22301 19-178, looked up)
chain: B1 chain with L103C, C141S
modifications: R4-6 on Cys 103
notes: mature
B21: IL-10 Arg102Cys-S48 (ligand, human, UniProt P22301 19-178, looked up)
chain: B1 chain with R102C, C141S
modifications: S48 on Cys 102
notes: mature
B22: IL-10 Glu122Cys-S48 (ligand, human, UniProt P22301 19-178, looked up)
chain: B1 chain with E122C, C141S
modifications: S48 on Cys 122
notes: mature
B23: IL-10 Asp25Cys-R4-11 (ligand, human, UniProt P22301 19-178, looked up)
chain: B1 chain with D25C, C141S
modifications: R4-11 on Cys 25
notes: mature
B24: IL-10 Glu96Cys-R4-12 (ligand, human, UniProt P22301 19-178, looked up)
chain: B1 chain with E96C, C141S
modifications: R4-12 on Cys 96
notes: mature
B25: IL-10 Glu81Cys-R4-12 (ligand, human, UniProt P22301 19-178, looked up)
chain: B1 chain with E81C, C141S
modifications: R4-12 on Cys 81
notes: mature
B26: IL-10 Arg102Cys-R4-20 (ligand, human, UniProt P22301 19-178, looked up)
chain: B1 chain with R102C, C141S
modifications: R4-20 on Cys 102
notes: mature
B27: IL-10 Asp86Cys-R4-11 (ligand, human, UniProt P22301 19-178, looked up)
chain: B1 chain with D86C, C141S
modifications: R4-11 on Cys 86
notes: mature
B28: IL-10 Asn92Cys-R4-18 (ligand, human, UniProt P22301 19-178, looked up)
chain: B1 chain with N92C, C141S
modifications: R4-18 on Cys 92
notes: mature
B29: IL-10 Lys99Cys-R4-7 (ligand, human, UniProt P22301 19-178, looked up)
chain: B1 chain with K99C, C141S
modifications: R4-7 on Cys 99
notes: mature
B30: IL-10 Arg106Cys-R4-7 (ligand, human, UniProt P22301 19-178, looked up)
chain: B1 chain with R106C, C141S
modifications: R4-7 on Cys 106
notes: mature
B31: IL-10 Gln123Cys-S48 (ligand, human, UniProt P22301 19-178, looked up)
chain: B1 chain with Q123C, C141S
modifications: S48 on Cys 123
notes: mature
B32: IL-10 Asn126Cys-R4-18 (ligand, human, UniProt P22301 19-178, looked up)
chain: B1 chain with N126C, C141S
modifications: R4-18 on Cys 126
notes: mature
B33: IL-10 Ile87Cys-R4-6 (ligand, human, UniProt P22301 19-178, looked up)
chain: B1 chain with I87C, C141S
modifications: R4-6 on Cys 87
notes: mature
B34: IL-10 Asn126Cys-S48 (ligand, human, UniProt P22301 19-178, looked up)
chain: B1 chain with N126C, C141S
modifications: S48 on Cys 126
notes: mature
B35: IL-10 Leu101Cys-S48 (ligand, human, UniProt P22301 19-178, looked up)
chain: B1 chain with L101C, C141S
modifications: S48 on Cys 101
notes: mature
B36: IL-10 Asp86Cys-S48 (ligand, human, UniProt P22301 19-178, looked up)
chain: B1 chain with D86C, C141S
modifications: S48 on Cys 86
notes: mature
B37: IL-10 Gln123Cys-R4-19 (ligand, human, UniProt P22301 19-178, looked up)
chain: B1 chain with Q123C, C141S
modifications: R4-19 on Cys 123
notes: mature
B38: IL-10 Glu81Cys-S48 (ligand, human, UniProt P22301 19-178, looked up)
chain: B1 chain with E81C, C141S
modifications: S48 on Cys 81
notes: mature
B39: IL-10 Asn92Cys-S48 (ligand, human, UniProt P22301 19-178, looked up)
chain: B1 chain with N92C, C141S
modifications: S48 on Cys 92
notes: mature
B40: IL-10 Leu103Cys-S48 (ligand, human, UniProt P22301 19-178, looked up)
chain: B1 chain with L103C, C141S
modifications: S48 on Cys 103
notes: mature
B41: IL-10 Ala89Cys-R4-1 (ligand, human, UniProt P22301 19-178, looked up)
chain: B1 chain with A89C, C141S
modifications: R4-1 on Cys 89
notes: mature
B42: IL-10 Glu96Cys-S48 (ligand, human, UniProt P22301 19-178, looked up)
chain: B1 chain with E96C, C141S
modifications: S48 on Cys 96
notes: mature
B43: IL-10 Ala89Cys-S48 (ligand, human, UniProt P22301 19-178, looked up)
chain: B1 chain with A89C, C141S
modifications: S48 on Cys 89
notes: mature
B44: IL-10 Ile87Cys-S48 (ligand, human, UniProt P22301 19-178, looked up)
chain: B1 chain with I87C, C141S
modifications: S48 on Cys 87
notes: mature
B45: IL-10 Ala29Cys-S48 (ligand, human, UniProt P22301 19-178, looked up)
chain: B1 chain with A29C, C141S
modifications: S48 on Cys 29
notes: mature
B46: IL-10 Lys88Cys-R4-7 (ligand, human, UniProt P22301 19-178, looked up)
chain: B1 chain with K88C, C141S
modifications: R4-7 on Cys 88
notes: mature
B47: IL-10 Ala29Cys-R4-5 (ligand, human, UniProt P22301 19-178, looked up)
chain: B1 chain with A29C, C141S
modifications: R4-5 on Cys 29
notes: mature
B48: IL-10 Arg106Cys-S48 (ligand, human, UniProt P22301 19-178, looked up)
chain: B1 chain with R106C, C141S
modifications: S48 on Cys 106
notes: mature
B49: IL-10 Lys88Cys-S48 (ligand, human, UniProt P22301 19-178, looked up)
chain: B1 chain with K88C, C141S
modifications: S48 on Cys 88
notes: mature

Target: T1, IL-10R1-Fc
Experiment: ELISA, IL-10R1-Fc coated

Binder	Binding recovery (>60%) [%]	Decreased fold of binding to ligand after Conjugating with S48 [fold]
B1	112	
B2		3
B3	97.2	
B4		3
B5		3
B6	115	
B7		5
B8		7
B9	90.1	
B10	99.1	
B11	99.1	
B12		5
B13		19
B14		3
B15	109	
B16	98.1	

Target: T2, IL-10R2-Fc/His
Experiment: ELISA, IL-10R2-Fc/His coated

Binder	Binding recovery (>60%) [%]	Decreased fold of binding to ligand after Conjugating with S48 [fold]
B17	90	
B18	99.8	
B19	91	
B20	89.4	
B21		3
B22		3
B23	91.5	
B24	98	
B25	93.6	
B26	99	
B27	81	
B28	86.4	
B29	117	
B30	99.6	
B31		3
B32	99	
B33	95.7	

Binder	Binding recovery (>60%) [%]	Decreased fold of binding to ligand after Conjugating with S48 [fold]
B34		3
B35		3
B36		3
B37	96.5	
B38		3
B39		3
B40		3
B41	78.7	
B42		3
B43		5
B44		4
B45		3
B46	99	
B47	78	
B48		3
B49		3
